Measurements from publication PMC12990809.

Columns and labels:
Assay in all cases: pulldown
[1] = biological target: T1, CBG05471 (Caenorhabditis briggsae) (UniProt A8WZY6); conditions: 20 nM protein, 1.5 uM RNA pool; 20 mM HEPES pH 7.8, 70 mM KCl, 10 mM NaCl, 10% glycerol, 2 mM DTT, 0.1 ug/uL BSA; 30 min, 4 C
T1 sequence: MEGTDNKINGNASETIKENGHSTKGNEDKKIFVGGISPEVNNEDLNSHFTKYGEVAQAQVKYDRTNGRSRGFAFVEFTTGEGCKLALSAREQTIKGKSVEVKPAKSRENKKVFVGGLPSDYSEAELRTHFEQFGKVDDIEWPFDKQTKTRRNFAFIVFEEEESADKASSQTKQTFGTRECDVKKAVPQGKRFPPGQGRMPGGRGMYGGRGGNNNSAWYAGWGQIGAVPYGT

[2] = biological target: T2, Smp_036270 E366G (Schistosoma mansoni) (UniProt A0A3Q0KEI3); conditions: 20 nM protein, 1.5 uM RNA pool; 20 mM HEPES pH 7.8, 70 mM KCl, 10 mM NaCl, 10% glycerol, 2 mM DTT, 0.1 ug/uL BSA; 30 min, 4 C
T2 sequence: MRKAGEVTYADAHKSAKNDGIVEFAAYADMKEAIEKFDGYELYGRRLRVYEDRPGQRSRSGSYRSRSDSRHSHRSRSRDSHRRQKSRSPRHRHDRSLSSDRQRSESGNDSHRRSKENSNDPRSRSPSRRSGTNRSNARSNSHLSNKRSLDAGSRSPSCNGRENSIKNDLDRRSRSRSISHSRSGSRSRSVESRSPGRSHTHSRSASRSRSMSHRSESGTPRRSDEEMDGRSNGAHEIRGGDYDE

HNRNPC (Homo sapiens) = HNRNPC (Homo sapiens) (UniProt P07910); conditions: 20 nM protein, 1.5 uM RNA pool; 20 mM HEPES pH 7.8, 70 mM KCl, 10 mM NaCl, 10% glycerol, 2 mM DTT, 0.1 ug/uL BSA; 30 min, 4 C (protocol of this paper; not …); cited from earlier work
Sequence of HNRNPC (Homo sapiens) (P07910 1-131): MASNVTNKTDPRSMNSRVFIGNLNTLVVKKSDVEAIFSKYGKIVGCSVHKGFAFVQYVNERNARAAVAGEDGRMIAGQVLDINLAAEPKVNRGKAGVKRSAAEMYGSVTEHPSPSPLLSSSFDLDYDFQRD

[3] = biological target: T3, mei2 (Schizosaccharomyces pombe) (UniProt P08965); conditions: 20 nM protein, 1.5 uM RNA pool; 20 mM HEPES pH 7.8, 70 mM KCl, 10 mM NaCl, 10% glycerol, 2 mM DTT, 0.1 ug/uL BSA; 30 min, 4 C
T3 sequence: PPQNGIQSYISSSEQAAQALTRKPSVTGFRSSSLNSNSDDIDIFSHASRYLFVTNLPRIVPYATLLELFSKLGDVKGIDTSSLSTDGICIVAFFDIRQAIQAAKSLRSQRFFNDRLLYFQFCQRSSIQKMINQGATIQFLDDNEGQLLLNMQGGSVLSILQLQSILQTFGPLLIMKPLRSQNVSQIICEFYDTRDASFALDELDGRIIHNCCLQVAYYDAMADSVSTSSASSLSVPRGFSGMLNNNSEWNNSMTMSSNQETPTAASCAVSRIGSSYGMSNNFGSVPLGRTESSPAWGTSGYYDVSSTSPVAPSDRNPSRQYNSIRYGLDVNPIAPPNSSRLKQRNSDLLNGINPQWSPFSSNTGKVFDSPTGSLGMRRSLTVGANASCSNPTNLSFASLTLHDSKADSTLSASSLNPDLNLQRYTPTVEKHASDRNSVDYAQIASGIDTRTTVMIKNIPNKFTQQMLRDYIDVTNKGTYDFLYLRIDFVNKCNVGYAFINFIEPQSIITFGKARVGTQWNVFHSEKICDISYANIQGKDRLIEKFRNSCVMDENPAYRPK

[4] = biological target: T4, nop12 (Schizosaccharomyces pombe) (UniProt O13741); conditions: 20 nM protein, 1.5 uM RNA pool; 20 mM HEPES pH 7.8, 70 mM KCl, 10 mM NaCl, 10% glycerol, 2 mM DTT, 0.1 ug/uL BSA; 30 min, 4 C
T4 sequence: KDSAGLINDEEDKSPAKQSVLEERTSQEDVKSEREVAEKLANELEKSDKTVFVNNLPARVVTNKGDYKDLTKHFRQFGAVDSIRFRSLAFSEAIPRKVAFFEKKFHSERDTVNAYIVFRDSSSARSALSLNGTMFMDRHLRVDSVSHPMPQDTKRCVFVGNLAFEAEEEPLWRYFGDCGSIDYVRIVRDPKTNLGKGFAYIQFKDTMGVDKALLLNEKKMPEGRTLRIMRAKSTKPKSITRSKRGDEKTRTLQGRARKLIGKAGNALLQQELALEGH

[5] = biological target: T5, SRSF3 (Tetraodon nigroviridis) (UniProt H3C295); conditions: 20 nM protein, 1.5 uM RNA pool; 20 mM HEPES pH 7.8, 70 mM KCl, 10 mM NaCl, 10% glycerol, 2 mM DTT, 0.1 ug/uL BSA; 30 min, 4 C
T5 sequence: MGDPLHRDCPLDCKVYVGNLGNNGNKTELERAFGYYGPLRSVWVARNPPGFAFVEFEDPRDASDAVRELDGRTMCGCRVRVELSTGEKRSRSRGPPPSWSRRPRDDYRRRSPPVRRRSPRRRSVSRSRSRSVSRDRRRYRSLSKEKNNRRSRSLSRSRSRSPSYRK

[6] = biological target: T6, PK11774.1 (Cannabis sativa) (UniProt A0A7J6FQM5); conditions: 20 nM protein, 1.5 uM RNA pool; 20 mM HEPES pH 7.8, 70 mM KCl, 10 mM NaCl, 10% glycerol, 2 mM DTT, 0.1 ug/uL BSA; 30 min, 4 C
T6 sequence: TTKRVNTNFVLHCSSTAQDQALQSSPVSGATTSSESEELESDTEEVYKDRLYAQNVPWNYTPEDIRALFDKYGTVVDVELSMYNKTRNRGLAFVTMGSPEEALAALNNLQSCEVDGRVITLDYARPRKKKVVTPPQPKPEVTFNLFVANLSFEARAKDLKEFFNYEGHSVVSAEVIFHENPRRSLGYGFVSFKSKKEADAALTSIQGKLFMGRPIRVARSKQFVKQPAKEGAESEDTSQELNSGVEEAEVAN

[7] = biological target: SNRPB2 (Meleagris gallopavo) (UniProt G1N364); conditions: 20 nM protein, 1.5 uM RNA pool; 20 mM HEPES pH 7.8, 70 mM KCl, 10 mM NaCl, 10% glycerol, 2 mM DTT, 0.1 ug/uL BSA; 30 min, 4 C
Sequence of SNRPB2 (Meleagris gallopavo) (G1N364 entry or part of it): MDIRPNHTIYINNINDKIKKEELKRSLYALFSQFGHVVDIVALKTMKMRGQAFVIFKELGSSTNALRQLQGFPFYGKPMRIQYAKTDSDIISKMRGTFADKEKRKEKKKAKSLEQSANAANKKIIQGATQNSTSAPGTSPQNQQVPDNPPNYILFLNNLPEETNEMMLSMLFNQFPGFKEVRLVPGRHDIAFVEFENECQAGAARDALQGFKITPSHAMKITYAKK

AGUAA [RNAcompete motif RNCMPT00422]
binding signal (z-score (mean of top ten 7-mers)) [1]: 9.16

CGGAGG [RNAcompete motif RNCMPT00417]
binding signal (z-score (mean of top ten 7-mers)) [2]: 13.5

UUUUUU [RNAcompete motif RNCMPT00025]
binding signal (z-score (mean of top ten 7-mers)) (HNRNPC (Homo sapiens)): 15.8

UUUUUUG [RNAcompete motif RNCMPT00413]
binding signal (z-score (mean of top ten 7-mers)) [3]: 14.2

GAACG [RNAcompete motif RNCMPT00412]
binding signal (z-score (mean of top ten 7-mers)) [4]: 25.9

AACAACG [RNAcompete motif RNCMPT00419]
binding signal (z-score (mean of top ten 7-mers)) [5]: 7.35

UGGAGNG [RNAcompete motif RNCMPT00403]
binding signal (z-score (mean of top ten 7-mers)) [6]: 10.9

UUGCAC [RNAcompete motif RNCMPT00425]
binding signal (z-score (mean of top ten 7-mers)) [7]: 7.95
